Reference: patent US20230235068A1

Molecular target: extracellular domain portion of LEPR protein expressed with a C-terminal human Fc tag (human)
Assay: competition ELISA, 10 nM hLEPR-hFc binding to coated hLeptin; soluble hLeptin as competitor

extracellular domain portion of LEPR protein expressed with a C-terminal human Fc tag (human), sequence (chain, as listed by the source limits assumed): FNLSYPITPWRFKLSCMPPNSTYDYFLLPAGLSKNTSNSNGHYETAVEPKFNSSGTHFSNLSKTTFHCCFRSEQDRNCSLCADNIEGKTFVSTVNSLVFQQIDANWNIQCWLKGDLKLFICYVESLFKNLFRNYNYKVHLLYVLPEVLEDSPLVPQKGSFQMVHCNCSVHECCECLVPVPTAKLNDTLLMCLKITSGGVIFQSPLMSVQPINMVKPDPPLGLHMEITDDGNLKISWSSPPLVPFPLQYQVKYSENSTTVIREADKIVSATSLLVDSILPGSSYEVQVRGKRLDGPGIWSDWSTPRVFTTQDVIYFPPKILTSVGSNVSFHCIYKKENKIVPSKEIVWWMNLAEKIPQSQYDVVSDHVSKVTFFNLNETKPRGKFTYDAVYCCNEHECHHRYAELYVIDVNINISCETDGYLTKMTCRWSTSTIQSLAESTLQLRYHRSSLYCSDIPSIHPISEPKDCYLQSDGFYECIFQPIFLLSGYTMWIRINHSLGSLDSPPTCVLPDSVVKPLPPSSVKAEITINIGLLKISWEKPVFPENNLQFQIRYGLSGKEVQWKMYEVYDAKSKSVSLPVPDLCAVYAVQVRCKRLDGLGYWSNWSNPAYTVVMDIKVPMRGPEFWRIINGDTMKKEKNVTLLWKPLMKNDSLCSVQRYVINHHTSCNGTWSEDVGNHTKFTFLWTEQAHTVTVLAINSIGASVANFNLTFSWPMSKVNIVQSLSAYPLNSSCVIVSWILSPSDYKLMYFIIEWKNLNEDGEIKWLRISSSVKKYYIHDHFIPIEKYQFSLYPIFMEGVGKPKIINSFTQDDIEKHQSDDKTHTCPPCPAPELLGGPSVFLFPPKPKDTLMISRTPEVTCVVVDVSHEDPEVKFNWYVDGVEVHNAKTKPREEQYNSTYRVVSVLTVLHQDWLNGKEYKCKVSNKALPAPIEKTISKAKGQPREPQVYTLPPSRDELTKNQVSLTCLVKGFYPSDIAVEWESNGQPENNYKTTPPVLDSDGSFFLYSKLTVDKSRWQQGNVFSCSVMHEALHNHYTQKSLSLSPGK

% blockade at 500 nM: 99%
Substance: human Leptin (from UniProt P41159 22-167) (ligand)
